Experiment [1] deals with T1, full-length spike protein of SARS-CoV-2 (Wuhan strain) (SARS-CoV-2 (Wuhan strain), UniProt P0DTC2 14-1273).
T1 construct: whole, on cells; Expressed in 293T cells
The experiment is described as follows: ACE2 competition, spike on 293T cells, antibody 4 µg/mL.

For experiment [2], the target named is T2, RBD derived from SARS-CoV-2 (Wuhan strain) (SARS-CoV-2 (Wuhan strain), UniProt P0DTC2 319-541).
T2 construct: domain: RBD
The experiment is described as follows: RBD beads, antibody 1 µg/mL, then labelled ACE2, flow cytometry. (In general: A flow cytometer gives signals particle by particle.)

In experiment [3] the target is T2, RBD derived from SARS-CoV-2 (Wuhan …). The experiment is described as follows: RBD beads, antibody 4 µg/mL, then labelled ACE2, flow cytometry.
Experiment [4] has the same target. The experiment is described as follows: RBD beads, antibody 0.25 µg/mL, then labelled ACE2, flow cytometry.
Experiment [5] addresses spike protein of SARS-CoV-2 (Wuhan strain) on pseudovirus (SARS-CoV-2 (Wuhan strain), UniProt P0DTC2 14-1254). The experiment is described as follows: cell-based or functional assay.
Experiment [6] has as its target T2, RBD derived from SARS-CoV-2 (Wuhan …). The experiment is described as follows: BLI (Octet), RBD of the Wuhan strain.

From patent US20230348573A1 (KEIO UNIVERSITY, published 2023) come the findings set out here.

B1: Ab315 (antibody, V domains shown)
VH: EVQLLESGGGLIQPGGSLRLSCAASGLIVSSNYMSWVRQAPGKGLEWVSVIYSGGSTYYADSVKGRFISSRDNSKNTLYLQMNSLRAEDTAVYYCARGELDLPYGMDVWGQGTTVTVSS
VL: QAVVTQPPSVSAAPGQKVTISCSGSSSNIGNNYVSWYQQLPGTAPKLLICDTNKRPSGIPDRFSGSKSGTSATLGITGLQTGDEADYYCGTWDRSLSAGVFGGGTKLTVL
Consider B1, for which the “binding amount (%) of ACE2 protein” value in experiment [1] was 5.2%. The “fluorescence of ACE2 protein” value in experiment [2] turned out to be 307; in experiment [3], 160; in experiment [4], 927.

B2: Ab863 (antibody, V domains shown)
VH: EVQLVQSGAEVKKPGASVKVSCQASGYTFITYYMHWVRQAPGQGLEWMGIINPDGGSISYAQKFQGRVTMTRDTSTSTVYMELSSLRSEDTAVYYCARGLSPTFSSSWFDNWGLGTLVTVSS
VL: DVVMTQSPATLSVSPGERATLSCRASQSVSSNLAWYQQKPGQAPRLLIYGASTRDTGIPARFSGSGSGTEFTLTISSLQSEDFAVYFCQQYKNWLLTFGGGTKVEIK
In the case of B2, the “binding amount (%) of ACE2 protein” value in experiment [1] is 1.7%.

B3: Ab709TK (antibody, V domains shown)
VH: QVQLVESGGGVVQPGKSLRLSCAASGFTFSSYAMHWVRLAPGKGLEWVAVISPDGKNKYYVDSVKGRSTISRDNSKNTLYLLMNSLRAEDTAVYYCATTQSLWFGQFYYIYGMDVWGQGTTVTVSS
VL: QSVLTQPHSVSESPGKTITISCTGSSGSIASNYVQWYQQRPGSAPTTVIYEDTERPSGVPDRFSGSIDSSSNSASLTISGLKTEDEADYYCQSYDSNNVVFGGGTKLTVL
As to B3, the “IC50 of pseudovirus infection (luciferase)” value (“IC50 of pseudovirus infection” for short) in experiment [5] stood at 0.0717 µg/mL. For the same molecule, the “binding amount (%) of ACE2 protein” value in experiment [1] stood at 0.6%.

B4: Ab302 (antibody, V domains shown)
VH: EVQLVESGGGLVQPGGSLRLSCAASGVIVSRNYMTWVRQAPGKGLEWVSVIYSGGSTFYADSVKGRFTISRDNSKNTLYLQMNSLRAEDTAVYYCARDRGEDVFDIWGQGTMVTVSS
VL: DIQLTQSPSSLSASVGDRVTITCRASQGISSYLAWYQQKPGKAPKLLIYAASTLQSGVPSRFSGSGSGTDFTLTISSLQPEDFATYYCQQLNSYPGYTFGQGTKLEIK
For B4, in experiment [1], the “binding amount (%) of ACE2 protein” value turned out to be 4.7%. The “fluorescence of ACE2 protein” value in experiment [2] turned out to be 372; in experiment [3], 189; in experiment [4], 1400.

B5: Ab114 (antibody, V domains shown)
VH: EVQLVESGGGLIQPGGSLRLSCAASGFTVSSNYMNWVRQAPGKGLEWVSVIYSGGSTFYADSVKGRFTISRDNSKNTLYLQMNSLRVEDTAVYYCARDLDTQGGMDVWGQGTTVTVSS
VL: EIVLTQSPGSLSLSPGERATLSCRASQGVSSSYLAWYQHKPGQAPRLLIFGASTRATGIPDRFSGSGSGTDFTLTISRLEPEDFAVYYCQLYGSSPGTFGQGTKLEIK
For the molecule B5, the “binding amount (%) of ACE2 protein” value in experiment [1] turned out to be 10.9%. Also, the “fluorescence of ACE2 protein” value was 2040 in experiment [2], 672 in experiment [3] and 3900 in experiment [4].

B6: Ab847 (antibody, V domains shown)
VH: EVQLVQSGAEVKKPGASVKVSCKASGYTFTSYDIIWVRQATGQGLEWMGWMDPSRGTTGYAQTFQGRVTMTRDTSISTAYLELNSLTSEDTAVYYCVAHIVVLDRWFDPWGQGTLVTVSS
VL: DIVMTQSPSSLSASVGDRVTITCQASQDIGNFLNWCQQKPGQAPKVLIYGASNLETGVPSRFSGSGSGTDFTFTISSLQPEDIATYYCQHYDNFPPRFTFGQGTKLDIK
Consider B6, for which, in experiment [5], the “IC50 of pseudovirus infection” value is 0.0403 µg/mL. Besides, in experiment [1], the “binding amount (%) of ACE2 protein” value was determined as 0.3%.

B7: Ab176 (antibody, V domains shown)
VH: EVQLVESGGGLVQPGGSLRLSCAASGFTFSSYSMNWVRQAPGKGLEWVSYISGSSSTIYYADSVKGRFTISRDNAKNSLYLQMNSLRAEDTAVYYCVSSEWLLPRFFDYWGQGTLVTVSS
VL: QPVLTQEASVSGTVGQKVTLSCTGNRNNIGSYPVGWYQQISHGAPKTVMFGNSPPSGIPDRFFGSRSGTTASLTISGLQPEDEADYYCSTWDYSLSAVVFGGGTKLTVL
Regarding B7, in experiment [1], the “binding amount (%) of ACE2 protein” value stood at 8.3%. The “fluorescence of ACE2 protein” value came out at 1190 in experiment [2], 366 in experiment [3] and 2660 in experiment [4].

B8: Ab803 (antibody, V domains shown)
VH: EVQLVESGGGLVQPGRSLRVSCAASGFTFDDYAMHWVRQTPRKGLEWVAGISRNSAAIAYADSVKGRFTISRDNAKNSVFLQMNGLRADDTALYYCVKSPRYGWGSPDYSFDFWGRGTLVTVSS
VL: DIQLTQSPSSLSASVGDRVTITCRASQNIGTYLNWYQQEPGKAPKLLIYAASSLQSGVPSRFSGSGSGTDFTLTISSLQPEDFATYCCQQSFTTPLTFGQGTKVEIK
B8: the “IC50 of pseudovirus infection” value in experiment [5] turned out to be 0.0468 µg/mL. The “binding amount (%) of ACE2 protein” value in experiment [1] was determined as 0.9%.

B9: Ab712 (antibody, V domains shown)
VH: QVQLVQSGSELKKPGASVKISCKASGYTFINHAINWVRQAPGQGLEWMGWINTNTGNPTYAPGFTGRFVFSLDTSVSTAYLQISSLKAEDTAVYYCARIPIRDYDYDGSGYYYFLDYWGQGTLVTVSS
VL: SYELTQDPAVSVALGQTVRITCQGDSLRSSSASWYQQKPGQAPVLVIYGKTNRPSGIPDRFSGSSSGNTASLTITGAQAEDEADYYCNSRDNSGNHPVVFGGGTKLTVL
Take B9: in experiment [5], the “IC50 of pseudovirus infection” value was 0.105 µg/mL. The “binding amount (%) of ACE2 protein” value in experiment [1] is 4.6%.

B10: Ab175 (antibody, V domains shown)
VH: EVQLVESGGGLVQPGGSLRLSCAASGIIVSSNYMTWVRQAPGKGLEWVSVLYSGGSTFYADSVKGRFTISRDNSKNMLYLQMNSLRAEDTAVYYCARDLQELGVDCWGQGTLVTVSS
VL: DIQLTQSPSFLSASVGDRVTITCRASQGISSYLAWYQQKPGKAPKLLIYAASTLQSGVPSRFSGSGSGTEFTLTISSLQPEDFATYYCQQLDSYPRFGGGTKVEIK
As for B10, the “binding amount (%) of ACE2 protein” value in experiment [1] was determined as 6.9%. The “fluorescence of ACE2 protein” value in experiment [2] turned out to be 439; in experiment [4], 1660.

B11: Ab376 (antibody, V domains shown)
VH: EVQLVESGGGLVQPGGSLRLSCEASEFTLNSHYMNWVRQAPGKGLEWVSVIYSSGSTYYADSVKGRFTISRHNSKDTLYLQMNSLKPEDTAVYYCARPNYGGNSIWYFDLWGRGTLVTVSS
VL: DIQMTQSPSSVSASVGDRVTITCRASQGIGSWLAWYQQTPGKAPKLLIYAASSLQSGVPSRFSGSGSGTDFTLTISSLQPEDFATYYCQQANSFPLTFGGGTKVEIK
Regarding B11, the Kd (as a rule, the constant that tells how readily two partners part at equilibrium) in experiment [6] turned out to be 0.11 nM. The “binding amount (%) of ACE2 protein” value in experiment [1] came to 5.1%. Further, the “fluorescence of ACE2 protein” value in experiment [2] was found to be 134; in experiment [3] it was 45; in experiment [4] it was 445.

B12: Ab830 (antibody, V domains shown)
VH: QVQLVQSGAEVKKPGSSVKVSCKTSGGTFTNYTISWVRQAPGQGLEWMGRIIPIFDIVNYAQKFQGRVTITADKSTSTTYMELSSLRSEDTAVYYCARDGVLYDTSGYLYDAFDIWGQGTMVTVSS
VL: DIQMTQSPSSLSASVGDRVTITCRASQGINNYLAWFQQKPGKAPKSLIYAASSLQSGVPPKFSGSGSGTDFTLTISSLQPEDFATYYCLHYNSYPWTFGQGTKVEIK
Consider B12, for which the “IC50 of pseudovirus infection” value in experiment [5] stood at 0.0349 µg/mL. The “binding amount (%) of ACE2 protein” value in experiment [1] was 0.9%.

B13: Ab816 (antibody, V domains shown)
VH: QVQLVQSGAEVKKPGESLMISCKASGYNFRNYWIAWVRQMPGKGLEWMGIIHPGDSDIRYRPSLQGHVTISADKSITTAYLQWGSLKASDTAMYYCTRITTDADSSGLFHYWGQGTLVTVSS
VL: EIVLTQSPSTLSASVGDRVTITCRASQNIYTWLAWYQRKPGKAPKVLIYKASSLESGVPSRFSGSGSGTEFTLTISSLQPDDFATYYCQQYKSAWSFGQGTKVEIK
Regarding B13, the “IC50 of pseudovirus infection” value in experiment [5] was determined as 0.023 µg/mL. The “binding amount (%) of ACE2 protein” value in experiment [1] came out at 0.3%.

B14: Ab369 (antibody, V domains shown)
VH: QVQLVQSGAEVKKPGASVKVSCKASGYTLTNRAIHWVRQAPGQRLEWMGWINAGKGNTKYSQKFQGRVTITRDTSASTAYMELSSLKSEDTAFYYCATGDGYNYGYDSWGQGTLVTVSS
VL: NFMLTQPPSVSVAPGKTARISCGGTNIGSKSVHWYQQKPGQAPVLVVHDDSDRPSGIPERFSASNSGNTATLTISRVEAGDEADYYCQVWDSTSDLPEVVFGGGTKLTVL
For B14, the Kd in experiment [6] came out at 0.197 nM. In addition, the “binding amount (%) of ACE2 protein” value in experiment [1] is 4.1%. Further, the “fluorescence of ACE2 protein” value in experiment [2] is 430; in experiment [3] it was 107; in experiment [4], 1640.

B15: Ab374 (antibody, V domains shown)
VH: EVQLVESGGGLIQPGGSLRLSCVASGFTVSSNYLAWVRQAPGQGLEWVSLIYPGGSTFYADSVKGRFTISRGNSNNTLYLQLNSLRTEDTAVYYCASLYRRGGDSWGQGTLVTVSS
VL: DIQMTQSPSSLSASVGDRVTITCQASQDIRNYLNWYQQKPGKAPKLLIYDASNLQTGVPSRFSGRGSGTDFTFTISSLQAEDIATYYCQQYDNLPITFGQGTRLEIK
Regarding B15, the “binding amount (%) of ACE2 protein” value in experiment [1] is 10.1%. For the same molecule, the “fluorescence of ACE2 protein” value in experiment [2] came to 429; in experiment [3], 244; in experiment [4], 1360.

B16: Ab765 (antibody, V domains shown)
VH: QVQLVESGGGVVQPGRSLRLSCAASGFTFSDYAIHWVRQAPGRGLEPVALISYDGNNKYYADSVKGRFTISRDNSKNVLYLQMNSLRADDTAVYYCARDAEGGWVAALDYWGQGTLVTVSS
VL: QSALTQPRSVSGSPGQSVTISCTGTSSDVGGYNYVSWYQHHPGKAPKVMIYEVSKRPSGVPDRFSGSKSGTTASLTISGLQAEDEADYYCCSYAGTYPYVFGTGTKVTVL
For B16, in experiment [5], the “IC50 of pseudovirus infection” value stood at 0.005 µg/mL. Also, the “binding amount (%) of ACE2 protein” value in experiment [1] stood at 0.9%.
